Target: VEGFR-2

Q: With “VEGF-A (from UniProt P15692 27-191) (ligand)” as the substance, how does the EC50 (read off the curve) read?
A: 5 ng/mL
